Entries after “also recorded” stand apart in the source; their conditions may differ. Read-outs that look alike come from different tables or passages of the source.
System: Nav1.6
Test: Patch-clamp recording of VGSC current in HEK (Nav1.6) cells
Type: cell-based, human

B1: Thaumatin: sweet-tasting protein binding to the CRD of T1R3 (protein)
chain: ATFEIVNRCSYTVWAAASKGDAALDAGGRQLNSGESWTINVEPGTNGGKIWARTDCYFDDSGSGICKTGDCGGLLRCKRFGRPPTTLAEFSLNQYGKDYIDISNIKGFNVPMDFSPTTRGCRGVRCAADIVGQCPAKLKAPGGGCNDACTVFQTSEYCCTTGKCGPTEYSRFFKRLCPDAFSYVLDKPTTVTCPGSSNYRVTFCPTA
Effect on VGSC current, alone: amplified VGSC currents similarly to Aβ1-42 | Effect on VGSC current when applied after Aβ1-42 (listed as thaumatin): further amplification of VGSC currents was not observed; also recorded: no further amplification | Effect on VGSC current, alone (listed as thaumatin): similarly amplified VGSC currents as Aβ1-42
